Measurements taken from patent US20060270591A1, “Androgen receptor coregulators” (priority 2002, published 2006).

Experiments:
ER = target: T1, ER (Homo sapiens, UniProt P03372); test: ER transactivation with ARA70 in DU145 cells (Example 3); assay type: cell-based; design: expressed in transfected cells; host or cells: DU145
T1 sequence (P03372 1-595): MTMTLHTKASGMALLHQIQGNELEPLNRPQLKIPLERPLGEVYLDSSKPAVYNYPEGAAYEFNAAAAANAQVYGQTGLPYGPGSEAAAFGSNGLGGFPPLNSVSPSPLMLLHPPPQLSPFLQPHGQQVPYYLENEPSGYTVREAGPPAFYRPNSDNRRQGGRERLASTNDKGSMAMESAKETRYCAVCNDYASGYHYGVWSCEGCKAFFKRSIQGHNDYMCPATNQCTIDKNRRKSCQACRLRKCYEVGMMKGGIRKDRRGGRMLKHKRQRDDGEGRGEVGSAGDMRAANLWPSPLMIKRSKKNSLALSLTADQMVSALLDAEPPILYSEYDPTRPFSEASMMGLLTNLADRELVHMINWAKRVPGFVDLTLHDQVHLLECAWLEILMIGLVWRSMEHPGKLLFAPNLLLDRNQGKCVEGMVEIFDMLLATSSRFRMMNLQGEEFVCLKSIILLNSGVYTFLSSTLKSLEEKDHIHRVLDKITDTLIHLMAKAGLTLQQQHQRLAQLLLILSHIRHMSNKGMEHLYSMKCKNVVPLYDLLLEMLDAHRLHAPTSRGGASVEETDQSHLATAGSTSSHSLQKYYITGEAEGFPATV
Description: (§1) 411. Human prostate cancer DU145 and PC-3 cells were maintained in […] (DMEM) containing penicillin (25 U/ml), streptomycin (25 μg/ml), and 5% fetal calf serum (FCS). Human LNCaP cells were maintained in RPMI containing penicillin (25 U/ml), streptomycin (25 μg/ml), and 10% FCS. Transfections were performed using the calcium phosphate precipitation method, as previously described (Dynlacht et al. (1991) Cell 66, 563-576). Briefly, 4×10^5 cells were plated on 60-mm dishes 24 hours before transfection, and the medium was changed to DMEM with 5% charcoal-dextran stripped FCS (CS-FBS) one hour before transfection. Transfection medium contained a constant amount of reporter plasmid and indicated amounts of pSG5-receptor, ARA70, or pCMX-GAL fusion construct using pSG5 as a carrier to provide equal amounts of transfected DNA. Twenty-four hours after transfection, the medium was changed again, and the cells were treated with DHT or other treatments. After another 24 hours, the cells were harvested for chloramphenicol transferase (CAT) or luciferase assays. At least three independent experiments were carried out in each case. Superfect (Qiagen) was used for transfection in LNCaP cells. The transfection conditions followed the manufacturer's protocol. […]

PR = target: T2, PR (Homo sapiens, UniProt P06401); test: PR transactivation with ARA70 in DU145 cells (Example 3); assay type: cell-based
T2 construct: expressed in transfected cells; host or cells: DU145, PC-3
T2 sequence (P06401 1-933): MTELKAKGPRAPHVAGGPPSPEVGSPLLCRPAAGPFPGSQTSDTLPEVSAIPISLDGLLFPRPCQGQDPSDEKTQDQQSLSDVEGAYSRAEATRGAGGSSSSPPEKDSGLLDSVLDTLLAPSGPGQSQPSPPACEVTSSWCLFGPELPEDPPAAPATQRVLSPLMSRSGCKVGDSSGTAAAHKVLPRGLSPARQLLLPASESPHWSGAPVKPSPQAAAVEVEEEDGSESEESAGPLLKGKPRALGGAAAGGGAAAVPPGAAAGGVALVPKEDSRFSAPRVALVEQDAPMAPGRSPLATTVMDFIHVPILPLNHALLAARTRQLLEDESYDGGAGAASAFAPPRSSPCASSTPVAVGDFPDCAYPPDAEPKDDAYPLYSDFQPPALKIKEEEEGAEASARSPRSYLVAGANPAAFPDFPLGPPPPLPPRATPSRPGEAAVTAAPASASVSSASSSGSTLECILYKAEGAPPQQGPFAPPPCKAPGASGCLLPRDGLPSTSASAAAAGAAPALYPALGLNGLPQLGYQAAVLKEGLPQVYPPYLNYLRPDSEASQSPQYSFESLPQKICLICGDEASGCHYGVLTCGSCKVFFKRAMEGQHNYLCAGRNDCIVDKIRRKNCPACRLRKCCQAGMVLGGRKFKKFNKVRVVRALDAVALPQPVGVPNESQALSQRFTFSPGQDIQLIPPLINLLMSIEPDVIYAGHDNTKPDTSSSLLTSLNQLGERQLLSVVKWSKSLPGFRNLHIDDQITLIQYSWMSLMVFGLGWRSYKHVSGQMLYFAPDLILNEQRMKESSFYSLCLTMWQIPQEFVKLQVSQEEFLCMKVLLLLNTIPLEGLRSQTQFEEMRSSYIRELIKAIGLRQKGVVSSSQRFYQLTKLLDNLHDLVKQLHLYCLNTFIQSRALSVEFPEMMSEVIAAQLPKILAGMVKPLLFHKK
Description: as §1

“ARA70: ligand-enhanced AR coregulator, full length ARA70” was tested, and the “enhancement of ER transactivation” value (ER) was 2-3 fold and the “enhancement of PR transactivation” value (PR) was 2-3 fold.
